Assay results as given in patent US20050260697.

B1: calpain-1 (protein)
chain: SEEIITPVYCTGVSAQVQKQRARELGLGRHENAIKYLGQDYEQLRVRCLQSGTLFRDEAFPPVPQSLGYKDLGPNSSKTYGIKWKRPTELLSNPQFIVDGATRTDICQGALGDCWLLAAIASLTLNDTLLHRVVPHGQSFQNGYAGIFHFQLWQFGEWVDVVVDDLLPIKDGKLVFVHSAEGNEFWSALLEKAYAKVNGSYEALSGGSTSEGFEDFTGGVTEWYELRKAPSDLYQIILKALERGSLLGCSIDISSVLDMEAITFKKLVKGHAYSVTGAKQVNYRGQVVSLIRMRNPWGEVEWTGAWSDSSSEWNNVDPYERDQLRVKMEDGEFWMSFRDFMREFTRLEICNLTPDALKSRTIRKWNTTLYEGTWRRGSTAGGCRNYPATFWVNPQFKIRLDETDDPDDYGDRESGCSFVLALMQKHRRRERRFGRDMETIGFAVYEVPPELVGQPAVHLKRDFFLANASRARSEQFINLREVSTRFRLPPGEYVVVPSTFEPNKEGDFVLRFFSEKSAGTVELDDQIQANLPDEQVLSEEEIDENFKALFRQLAGEDMEISVKELRTILNRIISKHKDLRTKGFSLESCRSMVNLMDRDGNGKLGLVEFNILWNRIRNYLSIFRKFDLDKSGSMSAYEMRMAIESAGFKLNKKLYELIITRYSEPDLAVDFDNFVCCLVRLETMFRFFKTLDTDLDGVVTFDLFKWLQLTMFA
B2: caspase-3 (protein)
chain: SGISLDNSYKMDYPEMGLCIIINNKNFHKSTGMTSRSGTDVDAANLRETFRNLKYEVRNKNDLTREEIVELMRDVSKEDHSKRSSFVCVLLSHGEEGIIFGTNGPVDLKKITNFFRGDRCRSLTGKPKLFIIQACRGTELDCGIETDSGVDDDMACHKIPVEADFLYAYSTAPGYYSWRNSKDGSWFIQSLCAMLKQYADKLEFMHILTRVNRKVATEFESFSFDATFHAKKQIPCIVSMLTKELYFYH

What was measured:
[1] = target: human muscle Troponin-T3, P45378
human muscle Troponin-T3, P45378, sequence (P45378 2-269): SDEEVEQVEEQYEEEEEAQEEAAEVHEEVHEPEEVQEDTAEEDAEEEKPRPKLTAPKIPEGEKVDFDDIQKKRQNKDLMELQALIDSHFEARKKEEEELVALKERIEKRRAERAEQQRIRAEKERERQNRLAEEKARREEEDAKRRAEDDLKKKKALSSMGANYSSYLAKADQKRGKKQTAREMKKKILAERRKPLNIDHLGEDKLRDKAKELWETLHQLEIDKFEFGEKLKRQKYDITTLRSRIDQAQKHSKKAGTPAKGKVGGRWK

[2] = target: human muscle Troponin-T1, P13805
human muscle Troponin-T1, P13805, sequence (P13805 whole entry): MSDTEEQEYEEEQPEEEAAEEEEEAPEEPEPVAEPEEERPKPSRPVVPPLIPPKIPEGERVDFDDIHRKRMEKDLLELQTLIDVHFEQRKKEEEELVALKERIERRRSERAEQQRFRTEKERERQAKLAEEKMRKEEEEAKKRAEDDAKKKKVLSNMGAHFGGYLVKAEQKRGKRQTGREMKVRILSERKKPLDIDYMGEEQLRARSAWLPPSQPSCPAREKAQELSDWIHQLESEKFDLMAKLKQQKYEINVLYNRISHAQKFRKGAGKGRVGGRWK

[3] = target: human cardiac Troponin-T2, P45379
[4] = target: human cardiac Troponin-I3, P19429
human cardiac Troponin-I3, P19429, sequence (P19429 whole entry, looked up): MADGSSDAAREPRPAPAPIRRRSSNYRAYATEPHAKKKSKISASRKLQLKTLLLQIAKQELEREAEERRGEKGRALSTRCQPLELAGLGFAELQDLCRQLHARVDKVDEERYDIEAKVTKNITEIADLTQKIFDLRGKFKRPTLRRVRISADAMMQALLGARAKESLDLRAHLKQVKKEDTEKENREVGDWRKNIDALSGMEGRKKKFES

Row | Protein | in vitro protease digestion, breakdown products on Coomassie stained membrane and Western blot [1] | stated: cleaves (breakdown bands on a stained membrane and a blot) [1] | in vitro protease digestion, breakdown products on Coomassie stained membrane and Western blot [2] | stated: cleaves (breakdown bands on a stained membrane and a blot) [2] | in vitro protease digestion, breakdown products on gels [3] | stated: cleaves (breakdown bands on a gel) [3] | in vitro protease digestion, breakdown products on gels [4]
1 | B1 | human muscle Troponin-T1/3 was digested by calpain-1 protease, producing unique breakdown products | Coomassie panel: the band at 35 kDa in the TnT lane weakens in the +Calpain-I lanes with time; band A of the blot, just below the intact band, is mapped to TnT3 (new N-terminus APKIPEGEK) | human muscle Troponin-T1/3 was digested by calpain-1 protease, producing unique breakdown products | Coomassie panel: the band at 35 kDa in the TnT lane weakens in the +Calpain-I lanes with time and a band near the 15 kDa mark appears; band B of the blot is mapped to TnT1 (new N-terminus AEQKRGKRQTGR) | – | – | –
2 | B2 | – | – | – | – | human cardiac Troponin-T2 and Troponin-13 were cleaved by calpain-2 and caspase-3 proteases, producing unique breakdown products | the Caspase-3 lane shows a band d at the 25 kDa mark that is absent from the untreated lane and the Calpain-2 lanes; the Troponin-T2 band at 30 kDa is largely kept; no bands a, b, c | human cardiac Troponin-T2 and Troponin-13 were cleaved by calpain-2 and caspase-3 proteases, producing unique breakdown products
